Measured values from the Human Domainome abundance scans (Beltran et al. 2025).

B1: Far upstream element-binding protein 1, residues 184 to 257; numbered along this chain, Q96AE4 (parent)
chain: GNAVQEIMIPASKAGLVIGKGGETIKQLQERAGVKMVMIQDGPQNTGADKPLRITGDPYKVQQAKEMVLELIRD

Variants of: B1
Assay: abundance fitness (aPCA) (normalised: wild type 0, dead -1); higher = more abundant; growth selection in yeast, the domain comes from the species named
Conditions: Homo sapiens

Abundance fitness: each site, then its substitutions
V17: S -0.505, W -0.294, Y -0.428
I18: A 0.038, C -0.12, D -0.152, E -0.028, G -0.148, H -0.009, K -0.117, L 0.008, M -0.065, P -0.292, Q -0.058, R -0.104, S -0.09, T 0.011, V -0.018, Y -0.106
G19: A -0.339, C -0.473, D -0.204, E -0.297, F -0.519, H -0.376, I -0.931, K -0.445, L -0.598, M -0.551, N -0.278, P -0.629, Q -0.363, R -0.438, S -0.366, T -0.371, V -0.763, Y -0.685
K20: A 0.02, C -0.14, D 0.049, E -0.01, F -0.07, G -0.105, H -0.045, I -0.129, M -0.112, N -0.016, P -0.026, S -0.042, T -0.035, V -0.031, W -0.166, Y -0.023
G21: C -0.076, D -0.024, E -0.059, F -0.05, H -0.015, I -0.278, K 0.015, L -0.1, M -0.033, N 0.05, P -0.493, Q -0.028, R 0.003, S -0.033, T -0.05, V -0.219
G22: A 0.003, C -0.106, E -0.056, F -0.145, H -0.127, I -0.417, K -0.14, L -0.157, M -0.115, P -0.328, Q -0.075, R -0.116, S -0.114, T -0.29, V -0.261, Y -0.237
E23: A 0.042, C -0.011, D -0.037, F -0.101, G 0.018, H 0.072, I -0.051, K 0.062, L -0.051, M -0.041, N -0.026, P -0.434, Q -0.021, R 0.136, S 0.043, T 0.041, V -0.063, W -0.087, Y -0.067
T24: A -0.075, C -0.061, D -0.208, E -0.08, F -0.101, G -0.008, H -0.029, I -0.11, K 0.007, L -0.099, M 0.002, N -0.075, P -0.206, Q -0.012, R -0.013, S -0.078, V -0.029, W -0.224, Y -0.116
I25: A -0.32, C -0.267, D -0.359, E -0.638, F -0.158, G -0.624, H -0.324, K -0.371, L 0.002, M 0.03, P -0.64, R -0.316, S -0.387, T -0.361, V -0.125, Y -0.332
K26: C -0.179, D -0.111, E -0.093, F -0.129, G -0.098, H -0.198, I 0.013, L -0.087, M -0.122, N -0.09, P -0.447, R -0.021, T -0.066, V -0.157, Y -0.041
Q27: A -0.05, C -0.08, D -0.005, E -0.001, G -0.013, H -0.008, I -0.019, K 0.032, L -0.083, M -0.008, N -0.012, R -0.011, S -0.021
